Laboratory results taken from the supplement of paper PMC10567573.

B1: CLPTM1 (parent)
chain: MNLHVYISEHEHFTDFNATSALFW

Variants of: B1
Test: protein stability index of a GFP-peptide fusion (GPS, HEK-293T) (PSI 1-6); higher = more stable
Conditions: c terminus: a fixed tail appended
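Further: lentivirally expressed fusions sorted by FACS into six bins by GFP to DsRed ratio, PSI derived from sequencing read proportions per bin multiplied by bin number.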

Variant	protein stability index
MNLHAYISEHEHFTDFNATSALFW	2.42
MNLHDYISEHEHFTDFNATSALFW	2.1
MNLHEYISEHEHFTDFNATSALFW	1.34
MNLHHYISEHEHFTDFNATSALFW	2.42
MNLHIYISEHEHFTDFNATSALFW	3.89
MNLHKYISEHEHFTDFNATSALFW	2.01
MNLHLYISEHEHFTDFNATSALFW	2.05
MNLHMYISEHEHFTDFNATSALFW	3.04
MNLHNYISEHEHFTDFNATSALFW	1.39
MNLHQYISEHEHFTDFNATSALFW	1.48
MNLHSYISEHEHFTDFNATSALFW	3.51
MNLHTYISEHEHFTDFNATSALFW	1.76
MNLHWYISEHEHFTDFNATSALFW	4.32
MNLHYYISEHEHFTDFNATSALFW	2.24
MNLHVAISEHEHFTDFNATSALFW	2.15
MNLHVCISEHEHFTDFNATSALFW	2.52
MNLHVDISEHEHFTDFNATSALFW	2.1
MNLHVEISEHEHFTDFNATSALFW	2.93
MNLHVFISEHEHFTDFNATSALFW	2.84
MNLHVHISEHEHFTDFNATSALFW	2.59
MNLHVIISEHEHFTDFNATSALFW	2.61
MNLHVKISEHEHFTDFNATSALFW	3.26
MNLHVLISEHEHFTDFNATSALFW	3.45
MNLHVNISEHEHFTDFNATSALFW	2.22

Variant	protein stability index
MNLHVPISEHEHFTDFNATSALFW	1.49
MNLHVQISEHEHFTDFNATSALFW	2.4
MNLHVRISEHEHFTDFNATSALFW	3.35
MNLHVSISEHEHFTDFNATSALFW	3.07
MNLHVTISEHEHFTDFNATSALFW	4.82
MNLHVYASEHEHFTDFNATSALFW	2.6
MNLHVYCSEHEHFTDFNATSALFW	2
MNLHVYDSEHEHFTDFNATSALFW	2.53
MNLHVYESEHEHFTDFNATSALFW	2.48
MNLHVYFSEHEHFTDFNATSALFW	2.58
MNLHVYGSEHEHFTDFNATSALFW	2.92
MNLHVYHSEHEHFTDFNATSALFW	1.79
MNLHVYKSEHEHFTDFNATSALFW	2.96
MNLHVYLSEHEHFTDFNATSALFW	2.45
MNLHVYMSEHEHFTDFNATSALFW	3.09
MNLHVYNSEHEHFTDFNATSALFW	3.55
MNLHVYRSEHEHFTDFNATSALFW	3.14
MNLHVYSSEHEHFTDFNATSALFW	2.45
MNLHVYVSEHEHFTDFNATSALFW	3.33
MNLHVYWSEHEHFTDFNATSALFW	2.65
MNLHVYYSEHEHFTDFNATSALFW	4.01
MNLHVYIDEHEHFTDFNATSALFW	3.18
MNLHVYIHEHEHFTDFNATSALFW	3.35
MNLHVYIIEHEHFTDFNATSALFW	1.69

Variant	protein stability index
MNLHVYILEHEHFTDFNATSALFW	2.96
MNLHVYIPEHEHFTDFNATSALFW	3.32
MNLHVYIREHEHFTDFNATSALFW	3.37
MNLHVYITEHEHFTDFNATSALFW	2.08
MNLHVYIWEHEHFTDFNATSALFW	3.59
MNLHVYIYEHEHFTDFNATSALFW	2.98
MNLHVYISAHEHFTDFNATSALFW	2.82
MNLHVYISFHEHFTDFNATSALFW	2.28
MNLHVYISGHEHFTDFNATSALFW	4.46
MNLHVYISHHEHFTDFNATSALFW	4.25
MNLHVYISKHEHFTDFNATSALFW	2.52
MNLHVYISLHEHFTDFNATSALFW	1.96
MNLHVYISMHEHFTDFNATSALFW	3.76
MNLHVYISNHEHFTDFNATSALFW	3.59
MNLHVYISPHEHFTDFNATSALFW	1.5
MNLHVYISQHEHFTDFNATSALFW	2.96
MNLHVYISTHEHFTDFNATSALFW	2.48
MNLHVYISVHEHFTDFNATSALFW	3.22
MNLHVYISYHEHFTDFNATSALFW	2.5
MNLHVYISECEHFTDFNATSALFW	2.77
MNLHVYISEDEHFTDFNATSALFW	2.41
MNLHVYISEEEHFTDFNATSALFW	2.77
MNLHVYISEGEHFTDFNATSALFW	2.58
MNLHVYISEIEHFTDFNATSALFW	1.28

Variant	protein stability index
MNLHVYISEMEHFTDFNATSALFW	2.73
MNLHVYISEPEHFTDFNATSALFW	2.64
MNLHVYISESEHFTDFNATSALFW	2.59
MNLHVYISETEHFTDFNATSALFW	3.76
MNLHVYISEVEHFTDFNATSALFW	1.99
MNLHVYISEHAHFTDFNATSALFW	1.98
MNLHVYISEHCHFTDFNATSALFW	3.77
MNLHVYISEHDHFTDFNATSALFW	2.39
MNLHVYISEHFHFTDFNATSALFW	3.56
MNLHVYISEHIHFTDFNATSALFW	2.42
MNLHVYISEHMHFTDFNATSALFW	3.46
MNLHVYISEHQHFTDFNATSALFW	2.87
MNLHVYISEHTHFTDFNATSALFW	2.47
MNLHVYISEHVHFTDFNATSALFW	4.02
MNLHVYISEHYHFTDFNATSALFW	3.67
MNLHVYISEHECFTDFNATSALFW	2.72
MNLHVYISEHEFFTDFNATSALFW	3.38
MNLHVYISEHELFTDFNATSALFW	1.41
MNLHVYISEHEMFTDFNATSALFW	2.39
MNLHVYISEHEPFTDFNATSALFW	2.64
MNLHVYISEHEQFTDFNATSALFW	1.98
MNLHVYISEHESFTDFNATSALFW	1.83
MNLHVYISEHETFTDFNATSALFW	2.1
MNLHVYISEHEWFTDFNATSALFW	3.67

Variant	protein stability index
MNLHVYISEHEYFTDFNATSALFW	2.77
MNLHVYISEHEHATDFNATSALFW	3.39
MNLHVYISEHEHCTDFNATSALFW	2.51
MNLHVYISEHEHETDFNATSALFW	3.52
MNLHVYISEHEHGTDFNATSALFW	2.42
MNLHVYISEHEHHTDFNATSALFW	2.67
MNLHVYISEHEHKTDFNATSALFW	4.65
MNLHVYISEHEHLTDFNATSALFW	4.51
MNLHVYISEHEHNTDFNATSALFW	3.8
MNLHVYISEHEHPTDFNATSALFW	2.63
MNLHVYISEHEHQTDFNATSALFW	2.2
MNLHVYISEHEHRTDFNATSALFW	2.5
MNLHVYISEHEHSTDFNATSALFW	2.4
MNLHVYISEHEHTTDFNATSALFW	1.95
MNLHVYISEHEHVTDFNATSALFW	2.63
MNLHVYISEHEHWTDFNATSALFW	4.9
MNLHVYISEHEHFADFNATSALFW	3.39
MNLHVYISEHEHFCDFNATSALFW	3.04
MNLHVYISEHEHFEDFNATSALFW	3.86
MNLHVYISEHEHFHDFNATSALFW	4.34
MNLHVYISEHEHFIDFNATSALFW	2.23
MNLHVYISEHEHFKDFNATSALFW	3.17
MNLHVYISEHEHFMDFNATSALFW	4.02
MNLHVYISEHEHFPDFNATSALFW	4.65

Variant	protein stability index
MNLHVYISEHEHFQDFNATSALFW	2.62
MNLHVYISEHEHFSDFNATSALFW	3.26
MNLHVYISEHEHFVDFNATSALFW	1.81
MNLHVYISEHEHFYDFNATSALFW	1.62
MNLHVYISEHEHFTAFNATSALFW	3.71
MNLHVYISEHEHFTCFNATSALFW	2.43
MNLHVYISEHEHFTEFNATSALFW	2.73
MNLHVYISEHEHFTKFNATSALFW	2.71
MNLHVYISEHEHFTMFNATSALFW	3
MNLHVYISEHEHFTQFNATSALFW	2.3
MNLHVYISEHEHFTSFNATSALFW	4.3
MNLHVYISEHEHFTTFNATSALFW	3.63
MNLHVYISEHEHFTWFNATSALFW	3.89
MNLHVYISEHEHFTYFNATSALFW	2.52
MNLHVYISEHEHFTDDNATSALFW	1.79
MNLHVYISEHEHFTDENATSALFW	2.87
MNLHVYISEHEHFTDGNATSALFW	2.76
MNLHVYISEHEHFTDHNATSALFW	3.52
MNLHVYISEHEHFTDINATSALFW	1.71
MNLHVYISEHEHFTDKNATSALFW	2.96
MNLHVYISEHEHFTDNNATSALFW	2.56
MNLHVYISEHEHFTDRNATSALFW	1.62
MNLHVYISEHEHFTDSNATSALFW	2.19
MNLHVYISEHEHFTDTNATSALFW	1.87

Variant	protein stability index
MNLHVYISEHEHFTDWNATSALFW	2.71
MNLHVYISEHEHFTDYNATSALFW	2.26
MNLHVYISEHEHFTDFAATSALFW	2.59
MNLHVYISEHEHFTDFCATSALFW	2.72
MNLHVYISEHEHFTDFEATSALFW	3.66
MNLHVYISEHEHFTDFFATSALFW	2.72
MNLHVYISEHEHFTDFGATSALFW	2.38
MNLHVYISEHEHFTDFHATSALFW	2.13
MNLHVYISEHEHFTDFIATSALFW	3.01
MNLHVYISEHEHFTDFKATSALFW	3.02
MNLHVYISEHEHFTDFPATSALFW	3.96
MNLHVYISEHEHFTDFRATSALFW	2.01
MNLHVYISEHEHFTDFSATSALFW	2.44
MNLHVYISEHEHFTDFTATSALFW	3.19
MNLHVYISEHEHFTDFVATSALFW	2.75
MNLHVYISEHEHFTDFNETSALFW	1.97
MNLHVYISEHEHFTDFNFTSALFW	4.2
MNLHVYISEHEHFTDFNGTSALFW	3.77
MNLHVYISEHEHFTDFNHTSALFW	3.29
MNLHVYISEHEHFTDFNKTSALFW	4.8
MNLHVYISEHEHFTDFNLTSALFW	2.01
MNLHVYISEHEHFTDFNMTSALFW	4.1
MNLHVYISEHEHFTDFNQTSALFW	5.84
MNLHVYISEHEHFTDFNRTSALFW	3.55

Variant	protein stability index
MNLHVYISEHEHFTDFNSTSALFW	2.46
MNLHVYISEHEHFTDFNTTSALFW	1.84
MNLHVYISEHEHFTDFNVTSALFW	2.92
MNLHVYISEHEHFTDFNWTSALFW	2.76
MNLHVYISEHEHFTDFNACSALFW	2.92
MNLHVYISEHEHFTDFNADSALFW	2.48
MNLHVYISEHEHFTDFNAESALFW	2.59
MNLHVYISEHEHFTDFNAHSALFW	2.99
MNLHVYISEHEHFTDFNAISALFW	3.09
MNLHVYISEHEHFTDFNAMSALFW	1.52
MNLHVYISEHEHFTDFNANSALFW	3.66
MNLHVYISEHEHFTDFNARSALFW	2.89
MNLHVYISEHEHFTDFNAVSALFW	1.89
MNLHVYISEHEHFTDFNAWSALFW	1.67
MNLHVYISEHEHFTDFNAYSALFW	2.08
MNLHVYISEHEHFTDFNATAALFW	4.95
MNLHVYISEHEHFTDFNATCALFW	2.75
MNLHVYISEHEHFTDFNATDALFW	4.08
MNLHVYISEHEHFTDFNATEALFW	2.37
MNLHVYISEHEHFTDFNATFALFW	2.51
